B1: Flag-Noc2p (natural protein)
chain: MGKVSKSTKKFQSKHLKHTLDQRRKEKIQKKRIQGRRGNKTDQEKADAAGTREQQQLKKSAKEEVFKDMSVETFFEKGIEIPKENKKLKKKTTKEQSDEDSSSSEEEEDMGQSMAKLAEKDPEFYKYLEENDKDLLDFAGTNPLDGIDSQDEGEDAERNSNIEEKSEQMELEKEKIELSLKLVRKWKKQLHDSPSLKLLRNIISAFKVAVNLNKEENIEDYKYAITDEKAFHELMFMVLKDVPQAIQKMAPYKIVKGARTLPNGGNVSRVSSIVKSHAGSLLILLNDITNTETAALVLHSVNELMPYLLSYRRILKELIKSIVGVWSTTRELETQIASFAFLINTTKEFKKSMLETTLKTTYSTFIKSCRKTNMRSMPLINFQKNSAAELFGIDEVLGYQVGFEYIRQLAIHLRNTMNATTKKSSKINSAEAYKIVYNWQFCHSLDFWSRVLSFACQPEKENGSESPLRQLIYPLVQVTLGVIRLIPTPQFFPLRFYLIKSLIRLSQNSGVFIPIYPLLSEILTSTAFTKAPKKSPNLAAFDFEHNIKCTQAYLNTKIYQEGLSEQFVDLLGDYFALYCKNIAFPELVTPVIISLRRYIKTSTNVKLNKRLSTVVEKLNQNSTFIQEKRSDVEFGPTNKSEVSRFLNDVAWNKTPLGSYVAVQREVKEEKARLMRESMEEQDKERETEEAKLLNSLESDDDNEDVEMSDA
B2: Noc1p (recombinant, untagged) (natural protein)
chain: MSENNGNPLDLSSLRNKISSKLRDNNSKKAKKTHKGKDVKASSNSKKVNEDIRREALALGASEEDLKLIQGLSDDDDAKSEQEFDAVADEDADDKGFKNDLQNFMKNVGFDQHKLEDVDDDDIEEESTSSKESKIPAQEKEHAQSNIASSTIEKTSQESIDNGSEQEENTVEEANLSSDQEPESESAEKEKKEEKDGGLITQTTIISSDKLIIPYDKPWYEIPLDPQVGQNDDVEELSKEQIEKLFERGKQTLEADNQTYYEEFTKDSSQAKFMSQILSDGTLNDKISAVTLLIQDSPLHNTKSLETLVSYCGKKSRNSALQSLNALKDLFLNGLLPNRKLRYFKNQPGLSMMLNKKTLAIFYFEDYLKKLFFRVLEVLEVLSHDPIIHVRLQILNHVFDLLTNQPEQEFNLLRLGVNKIGDIDSKVSSKASYLLLKLEQAHPNMKSIVIDAIVDIALRPNADYHTTYYSVITLNQTILKRSEDSVANKLVKTYFTLFEKFLINTDKDNTNGVVKSNSKSYEEKRKKNFKKGKHGGKSVKIEKTENEVLDEKNSKLFSALLTGINRAFPFAQIPASVYEVHMETLFKITHSSNFNTSIQALVLINQVTVKAKLNSDRYYRTLYESLFDPRLVNSSKQGIYLNLLYKSLKQDALNVERVEAFVKRILQVCSHWLNVGTITGFFFLLIQLAKTVPQIKNLLTNTPVDYEYESDAEEEQGDKDIKRKEYDGRKRDPKFANAEKSSLWEINNFINHFHPTVKTYANAYVTGETEQIAKPDLGLFTLSHFLDRFVYRSAKQTNTARGTSIMQPLFSGSRVNDSVLVKASDIMHDQGPVNTEDWLTKKVEDIKPEDKFFYQYFTTKKTADGKGKKSNKASNFDSDDEMDENEIWSALVKSRPDVEDDSDDSELDFAEDDFSDSTSDDEPKLDAIDDEDAKSEGSQESDQEEGLDEDIFYSFDGEQDNSDKKRSFAESSEEDESSEEEKEEEENKEVSAKRAKKKQRKNMLKSLPVFASADDYAQYLDQDSD

For experiment [1], the target named is B2. The experiment in a line: SEC. On the technique in general: Size exclusion chromatography separates by hydrodynamic size, large species first.
Experiment [2] deals with HA-Rrp5p (S. cerevisiae, UniProt Q05022 1-1729). The experiment in a line: SEC.
Chain of HA-Rrp5p (Q05022 whole entry): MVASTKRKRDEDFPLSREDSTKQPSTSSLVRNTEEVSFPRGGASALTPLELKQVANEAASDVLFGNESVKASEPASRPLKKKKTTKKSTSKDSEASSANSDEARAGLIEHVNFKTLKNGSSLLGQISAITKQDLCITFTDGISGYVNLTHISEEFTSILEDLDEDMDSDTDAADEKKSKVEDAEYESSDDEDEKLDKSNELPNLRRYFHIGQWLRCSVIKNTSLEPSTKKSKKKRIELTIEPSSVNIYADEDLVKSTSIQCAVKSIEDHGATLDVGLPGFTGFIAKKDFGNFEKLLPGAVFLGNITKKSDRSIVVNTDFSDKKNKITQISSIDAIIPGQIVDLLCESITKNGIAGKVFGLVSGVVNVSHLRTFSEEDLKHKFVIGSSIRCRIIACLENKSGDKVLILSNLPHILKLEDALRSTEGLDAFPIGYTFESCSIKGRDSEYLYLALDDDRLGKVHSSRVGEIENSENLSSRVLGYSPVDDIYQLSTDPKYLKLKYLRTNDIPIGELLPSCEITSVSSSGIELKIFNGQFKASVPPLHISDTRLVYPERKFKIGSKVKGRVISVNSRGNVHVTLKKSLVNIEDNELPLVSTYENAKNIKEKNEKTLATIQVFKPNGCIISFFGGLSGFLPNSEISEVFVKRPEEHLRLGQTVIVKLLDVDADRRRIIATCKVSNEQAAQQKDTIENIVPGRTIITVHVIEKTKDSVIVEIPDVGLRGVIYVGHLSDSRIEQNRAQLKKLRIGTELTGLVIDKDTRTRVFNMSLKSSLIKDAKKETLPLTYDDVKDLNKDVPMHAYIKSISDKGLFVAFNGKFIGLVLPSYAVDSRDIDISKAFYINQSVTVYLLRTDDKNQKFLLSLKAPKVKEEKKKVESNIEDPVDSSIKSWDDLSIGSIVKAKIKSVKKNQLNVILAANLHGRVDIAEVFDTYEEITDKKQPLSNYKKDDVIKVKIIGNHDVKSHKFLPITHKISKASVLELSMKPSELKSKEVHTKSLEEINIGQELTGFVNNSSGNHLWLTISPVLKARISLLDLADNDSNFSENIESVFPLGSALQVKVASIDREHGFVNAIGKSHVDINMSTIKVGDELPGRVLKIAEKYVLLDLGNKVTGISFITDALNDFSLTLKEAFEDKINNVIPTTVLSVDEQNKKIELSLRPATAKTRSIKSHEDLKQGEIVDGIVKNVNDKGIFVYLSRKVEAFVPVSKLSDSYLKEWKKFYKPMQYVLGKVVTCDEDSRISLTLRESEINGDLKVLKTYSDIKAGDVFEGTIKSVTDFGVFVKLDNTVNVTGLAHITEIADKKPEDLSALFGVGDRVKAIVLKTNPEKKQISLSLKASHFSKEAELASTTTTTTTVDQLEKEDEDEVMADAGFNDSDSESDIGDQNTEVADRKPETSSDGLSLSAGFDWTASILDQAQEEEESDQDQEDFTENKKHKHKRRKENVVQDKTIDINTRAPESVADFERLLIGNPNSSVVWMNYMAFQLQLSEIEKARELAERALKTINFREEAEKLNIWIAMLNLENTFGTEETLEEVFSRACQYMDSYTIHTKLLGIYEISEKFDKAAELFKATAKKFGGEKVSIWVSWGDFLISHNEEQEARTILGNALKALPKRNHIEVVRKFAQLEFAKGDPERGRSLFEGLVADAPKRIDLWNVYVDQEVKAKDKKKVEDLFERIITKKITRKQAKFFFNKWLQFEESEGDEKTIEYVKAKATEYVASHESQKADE

Turning to B1, the binding result in experiment [1] is listed as “binds”.

With B2, the binding result in experiment [2] was “binds”.

The values above are taken from article PMC3553968 (Nucleic Acids Research, 2012).
